Holding throughout (format): cell-based, human
Assay [1] concerns SoC-resistant AML cells. The experiment in a line: Ex vivo killing of VEN/AZA-treated AML patient leukemic cells. The note with it: 5 μg/mL of antibody; fresh BM leukemic cells from a patient treated with VEN/AZA. Here is the method:
Ex vivo killing of VEN/AZA-treated AML patient leukemic cells (FIG. 7A) or T cells or NK cells (FIG. 7B). Values normalized to vehicle control. Lines represent linear regression of NC525 concentration versus normalized cell killing. […] FIGS. 7D and 7E show in vivo leukemic growth as measured by whole-body luminescence of MV4-11-luciferase cells (FIG. 7D) or survival (FIG. 7E) of CDX mice treated with 10 mg/kg isotype control (gray) or NC525 (red) or 100 mg/kg VEN (pink) or 0.5 mg/kg AZA (blue) or combination therapy (green or yellow, respectively). BLoD, below limit of detection. n=9 mice per group. P values determined by 2-way ANOVA or log-rank (Mantel-Cox) test, respectively. FIGS. 7F and 7G show leukemic growth in the blood (FIG. 7F) and in the spleen and BM (FIG. 7G) at week 8 after transplant of AML PDX mice treated with vehicle (gray), VEN/AZA (blue), NC525 (red), or VEN/AZA plus NC525 (green). n=5-10 mice per group. AML cells in spleen and BM compared from 4-5 mice per group. Data are shown as the mean±SEM. P values determined by 2-way ANOVA or 1-way ANOVA with multiple comparisons.

Assay [2] relates to AML patient bone-marrow cells (LSCs). The experiment in a line: Colony forming unit assay, AML patient bone-marrow. The conditions noted are these: titrated concentrations, dose-response; vs isotype or vehicle. Here is the method: Cryopreserved AML bone-marrow cells or healthy donor CD34 cells were thawed and plated in 96 wells plates. Cells were engaged with the indicated concentrations of LAIR-1 mAb or isotype control for 30 min at room temperature. Subsequently, cells were diluted in IMDM with 2% FBS and mixed with semisolid methylcellulose-based medium (MethoCult H4435 Enriched, StemCell Technologies, Vancouver, Canada) which contains human cytokines (stem cell factor, IL-3, IL-6, EPO, G-CSF, GM-CSF). Then, between 1e4 and 2.5e5 LSCs, or, between 1e3 and 5e3 healthy donor CD34 cells per well were plated on 6-well SmartDishes (StemCell Technologies, Vancouver, Canada). The cell-loaded plates were incubated at 37° C. with 5% CO2 in air and ≥95% humidity. On day 14, colony formation was counted by STEMvision (StemCell Technologies, Vancouver, Canada), an automated and standardized colony counting instrument. The automated results were confirmed and edited manually by the STEMvision Colony Marker software.

The subject of assay [3] is LAIR-1. As to the kind of experiment: Ligand (collagen) mediated LAIR-1 signaling blockade in UT-140 reporter cells. The procedure:
FIGS. 24A-24C display h11B3 LAIR-1 mAbs, containing a variable light chain of SEQ ID NO: 16 and a variable heavy chain of SEQ ID NO:27, binds LAIR-1 and blocks its functional signaling triggered by collagen-I in UT-140 reporter cells. Seed 1e4 UT140 reporter cells/100 μl in 96-well flat bottom plate. LAIR1 signaling was induced by 10 μg/ml coated collagen treatment. Blocking of LAIR1 signaling by such h11B3 LAIR-1 mAbs was determined by addition of different concentrations of such h11B3 LAIR-1 mAbs in 100 μL per well. Cultures were maintained for 20 hours, and the GFP was read on flow cytometry.
FIGS. 25A-25B display h11B3 LAIR-1 mAbs, containing a variable light chain of SEQ ID NO: 16 and a variable heavy chain of SEQ ID NO:27, blocks collagen-1 signaling. […] Reporter activation was quantified by flow cytometry. […]
For cell binding assays, 5e4 UT-140 cells or mouse LAIR-1-transfected 293T cells per well were plated in 200 μL PBS in a 96-well round bottom plate, centrifuged for 4 minutes at 500×g for a single wash, and blocked for 10 minutes on ice with flow cytometry buffer (PBS+2% FBS+0.1 mM EDTA) containing 1:50 dilution of TruStain™ Fc block (Biolegend, San Diego, CA). […] Cells were then washed 3 times as previously described and binding was measured by flow cytometry using an Attune NXT flow cytometer. […] GFP expression was measured by flow cytometry using an Attune NXT Flow Cytometer.

B1: LAIR-1 mAb: humanized agonist anti-LAIR-1 mAb, IgG1 backbone; h11B3 VL-2 (SEQ ID NO: 16), h11B3 VH-3 (SEQ ID NO: 27) (antibody, V domains shown)
VH: EVQLVESGGGLVQPGGSLKLSCAASGFTFNTNAMYWVRQAPGKGLEWVGRIRSKSSNYATYYAASVKGRFTISRDDSKNTLYLQMNSLKTEDTAVYYCVRGGSGFFAYWGQGTLVTVSS
VL: DIQMTQSPSSLSASLGDRVTITCKASEDIYIRLAWYQQKPGKAPRLLISTATSLETGVPSRFSGSGSGTDYTFTISSLQPEDIATYYCQQYWSTPYTFGGGTRLEIK
modifications: IgG1 constant regions; Synthetic: h11B3 VH-3; Synthetic: h11B3 VL-2
For B1, the “killing of SoC-resistant AML cells” value in assay [1] is “up to 70%”. Further, in assay [2], the CFU formation result was “significantly decreased”. The “collagen binding to LAIR-1” value in assay [3] is recorded as “blocks collagen binding”.

These data come from patent US20240352121A1, “LAIR-1 AGONISTIC ANTIBODIES AND METHODS OF USE THEREOF” (NEXTCURE, INC., priority 2023, published 2024).
